Experimental data from patent publication US20040053349A1, “Direct selection of protein complexes relevant to physiological or diagnostic context of a biological specimen” (priority 2000, published 2004).

B1: Ribonuclease A: enzyme preparation spiked into dialyzed serum sample (protein, UniProt P61823 27-150, looked up)
Ribonuclease pancreatic: KETAAAKFERQHMDSSTSAASSSNYCNQMMKSRNLTKDRCKPVNTFVHESLADVQAVCSQKNVACKNGQTNCYQSYSTMSITDCRETGSSKYPNCAYKTTQANKHIIVACEGNPYVPVHFDASV

System: trypsin
Test: Trypsin treatment of enzyme-spiked dialyzed human serum with or without ligand solutions, then residual enzyme activity assay
Format: biochemical
Conditions: for Relative residual activity [percent of untreated], LSA: LSA (ATP, XMP, CMP, NADP, NADPH) added before treatment with trypsin; for Relative residual activity [percent of untreated], LSA + LSB: LSA and LSB both added before treatment with trypsin; for Relative residual activity [percent of untreated], LSB: LSB (glucose, L-aspartic acid, D,L-asparagine, creatine, D,L-glyceraldehyde-3-P) added before treatment with trypsin
Experimental: 2. Ligand solutions (LS) are composed as follows:
One) ATP, XMP, CMP, NADP and NADPH are included in ligand solution LSA; and
Two) Glucose, L-aspartic acid, D,L-asparagine, creatine, D,L-glyceraidehyde-3-P are included in ligand solution LSB.
2. The serum is treated with trypsin in the absence and presence of LSA or LSB, or both. At the end of the treatment samples are assayed for enzyme activity. For details see Table 1.

| Molecule | Relative residual activity [percent of untreated], LSA | Relative residual activity [percent of untreated], LSA + LSB | Relative residual activity [percent of untreated], LSB |
| --- | --- | --- | --- |
| Asparaginase | 9% of untreated | 90% of untreated | 89% of untreated |
| B1 | 93% of untreated | 93% of untreated | 11% of untreated |
